T1: APBA1_1, Q02410
T1 sequence (Q02410 651-752, limits assumed, looked up): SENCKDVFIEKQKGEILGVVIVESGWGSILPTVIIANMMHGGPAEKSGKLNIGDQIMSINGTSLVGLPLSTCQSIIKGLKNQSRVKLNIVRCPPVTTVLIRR

T2: APBA1_2, Q02410
T2 sequence (Q02410 742-832, limits assumed, looked up): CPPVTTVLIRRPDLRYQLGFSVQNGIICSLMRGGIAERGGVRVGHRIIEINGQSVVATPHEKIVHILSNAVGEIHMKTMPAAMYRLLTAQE

T3: DVL3, Q92997
T3 sequence (Q92997 244-331, limits assumed, looked up): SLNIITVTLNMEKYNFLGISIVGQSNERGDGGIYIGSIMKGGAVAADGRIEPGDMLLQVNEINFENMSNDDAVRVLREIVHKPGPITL

T4: GRIP1_5, Q9Y3R0
T4 sequence (Q9Y3R0 568-668, limits assumed, looked up): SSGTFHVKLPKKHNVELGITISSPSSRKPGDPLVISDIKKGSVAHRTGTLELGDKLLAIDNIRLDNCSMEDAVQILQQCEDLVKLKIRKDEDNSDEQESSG

T5: LIN7C, Q9NUP9
T5 sequence (Q9NUP9 88-185, limits assumed, looked up): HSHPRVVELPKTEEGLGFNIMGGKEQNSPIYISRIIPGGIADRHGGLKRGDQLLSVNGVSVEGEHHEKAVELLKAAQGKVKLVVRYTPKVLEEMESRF

T6: LNX2_3, Q8N448
T6 sequence (Q8N448 463-564, limits assumed, looked up): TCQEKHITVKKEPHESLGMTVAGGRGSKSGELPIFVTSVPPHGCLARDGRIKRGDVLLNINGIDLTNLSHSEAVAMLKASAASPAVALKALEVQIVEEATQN

T7: MPDZ_12, O75970
T7 sequence (O75970 1857-1958, limits assumed, looked up): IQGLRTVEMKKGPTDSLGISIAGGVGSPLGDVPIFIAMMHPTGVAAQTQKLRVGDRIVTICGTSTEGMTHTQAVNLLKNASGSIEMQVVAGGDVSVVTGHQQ

T8: NHERF3_4, Q5T2W1
T8 sequence (Q5T2W1 373-468, limits assumed, looked up): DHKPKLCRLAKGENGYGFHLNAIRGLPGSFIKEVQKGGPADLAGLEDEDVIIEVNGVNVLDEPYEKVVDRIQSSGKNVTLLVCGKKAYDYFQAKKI

T9: PDZD2_2, O15018
T9 sequence (O15018 329-429, limits assumed, looked up): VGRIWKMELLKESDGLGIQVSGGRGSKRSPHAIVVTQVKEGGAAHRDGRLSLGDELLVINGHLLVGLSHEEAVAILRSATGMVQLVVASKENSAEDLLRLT

T10: SNTG1, Q9NSN8
T10 sequence (Q9NSN8 52-150, limits assumed, looked up): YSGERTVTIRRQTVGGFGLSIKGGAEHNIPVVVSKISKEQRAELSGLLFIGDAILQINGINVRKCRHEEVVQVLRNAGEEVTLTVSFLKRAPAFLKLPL

T11: SNTG2, Q9NY99
T11 sequence (Q9NY99 68-166, limits assumed, looked up): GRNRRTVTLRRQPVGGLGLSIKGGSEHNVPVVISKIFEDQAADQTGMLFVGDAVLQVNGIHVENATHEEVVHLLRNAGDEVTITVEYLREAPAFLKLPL


What was measured:
Experiment in all cases: holdup assay
Parameters in all cases: key: below the threshold = too weak to quantify, mostly under pKd 3.1 to 4
Details in all cases: plain residues with an end cap or a label only (N-terminal biotin on a linker: ado-ado)
APBA1_1, Q02410 = target: T1, APBA1_1, Q02410
APBA1_2, Q02410 = target: T2, APBA1_2, Q02410
DLG1_1, Q12959 = target: DLG1_1, Q12959
DLG4_1, P78352 = target: DLG4_1, P78352
Chain of DLG4_1, P78352 (P78352 62-152): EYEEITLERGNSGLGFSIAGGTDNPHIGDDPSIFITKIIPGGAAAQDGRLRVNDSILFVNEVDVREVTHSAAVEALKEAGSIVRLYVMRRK

DLG4_3, P78352 = target: DLG4_3, P78352
Chain of DLG4_3, P78352 (P78352 306-403): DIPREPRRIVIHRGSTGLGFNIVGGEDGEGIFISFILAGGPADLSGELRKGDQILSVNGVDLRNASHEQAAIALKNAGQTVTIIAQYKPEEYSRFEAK

DVL3, Q92997 = target: T3, DVL3, Q92997
FRMPD2_1, Q68DX3 = target: FRMPD2_1, Q68DX3
Chain of FRMPD2_1, Q68DX3 (Q68DX3 770-861): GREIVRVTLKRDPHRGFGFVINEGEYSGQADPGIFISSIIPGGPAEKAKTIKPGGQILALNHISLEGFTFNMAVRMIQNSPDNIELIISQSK

GIPC2, Q8TF65 = target: GIPC2, Q8TF65
Chain of GIPC2, Q8TF65 (Q8TF65 112-203): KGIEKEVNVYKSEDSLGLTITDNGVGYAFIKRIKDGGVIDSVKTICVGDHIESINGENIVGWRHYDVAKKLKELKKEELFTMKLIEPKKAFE

GORASP2, Q9H8Y8 = target: GORASP2, Q9H8Y8
GRIP1_5, Q9Y3R0 = target: T4, GRIP1_5, Q9Y3R0
GRIP2_4, Q9C0E4 = target: GRIP2_4, Q9C0E4
Chain of GRIP2_4, Q9C0E4 (Q9C0E4 446-548): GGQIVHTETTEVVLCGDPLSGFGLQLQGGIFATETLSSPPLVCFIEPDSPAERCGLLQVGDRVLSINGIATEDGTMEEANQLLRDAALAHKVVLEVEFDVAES

GRIP2_7, Q9C0E4 = target: GRIP2_7, Q9C0E4
Chain of GRIP2_7, Q9C0E4 (Q9C0E4 934-1023): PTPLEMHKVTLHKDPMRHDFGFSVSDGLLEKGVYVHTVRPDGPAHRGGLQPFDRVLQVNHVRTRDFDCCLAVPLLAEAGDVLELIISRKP

IL16_3, Q14005 = target: IL16_3, Q14005
Chain of IL16_3, Q14005 (Q14005 1107-1207): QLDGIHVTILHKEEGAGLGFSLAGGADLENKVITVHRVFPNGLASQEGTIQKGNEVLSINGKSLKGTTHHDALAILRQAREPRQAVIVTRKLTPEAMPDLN

Inadl_10, Q8NI35 = target: Inadl_10, Q8NI35
Chain of Inadl_10, Q8NI35 (Q8NI35 1673-1763): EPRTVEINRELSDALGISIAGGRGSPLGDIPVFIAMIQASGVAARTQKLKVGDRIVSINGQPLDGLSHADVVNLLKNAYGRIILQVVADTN

Inadl_8, Q8NI35 = target: Inadl_8, Q8NI35
Chain of Inadl_8, Q8NI35 (Q8NI35 1425-1530): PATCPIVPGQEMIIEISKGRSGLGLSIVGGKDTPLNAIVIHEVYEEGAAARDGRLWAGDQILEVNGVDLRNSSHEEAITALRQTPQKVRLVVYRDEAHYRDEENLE

LIMK2, P53671 = target: LIMK2, P53671
Chain of LIMK2, P53671 (P53671 143-248): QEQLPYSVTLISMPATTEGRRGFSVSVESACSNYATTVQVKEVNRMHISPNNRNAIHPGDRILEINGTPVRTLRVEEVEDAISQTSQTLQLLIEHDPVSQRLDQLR

LIN7C, Q9NUP9 = target: T5, LIN7C, Q9NUP9
LNX2_3, Q8N448 = target: T6, LNX2_3, Q8N448
MAST2, Q6P0Q8 = target: MAST2, Q6P0Q8
Chain of MAST2, Q6P0Q8 (Q6P0Q8 1099-1202): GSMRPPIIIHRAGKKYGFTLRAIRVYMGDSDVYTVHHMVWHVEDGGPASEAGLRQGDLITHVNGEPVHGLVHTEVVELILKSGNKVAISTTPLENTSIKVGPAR

MPDZ_12, O75970 = target: T7, MPDZ_12, O75970
NHERF3_4, Q5T2W1 = target: T8, NHERF3_4, Q5T2W1
NHERF4_4, Q86UT5 = target: NHERF4_4, Q86UT5
Chain of NHERF4_4, Q86UT5 (Q86UT5 464-550): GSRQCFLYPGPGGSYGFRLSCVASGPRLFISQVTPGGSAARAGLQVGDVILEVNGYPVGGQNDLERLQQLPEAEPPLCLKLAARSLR

PDZD2_2, O15018 = target: T9, PDZD2_2, O15018
PTPN3, P26045 = target: PTPN3, P26045
Chain of PTPN3, P26045 (P26045 505-587): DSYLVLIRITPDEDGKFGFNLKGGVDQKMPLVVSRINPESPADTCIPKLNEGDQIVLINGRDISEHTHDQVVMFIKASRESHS

SCRIB_2, Q14160 = target: SCRIB_2, Q14160
Chain of SCRIB_2, Q14160 (Q14160 857-960): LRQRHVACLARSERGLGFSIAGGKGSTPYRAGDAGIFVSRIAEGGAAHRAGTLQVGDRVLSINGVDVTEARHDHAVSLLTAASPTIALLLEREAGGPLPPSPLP

SNTG1, Q9NSN8 = target: T10, SNTG1, Q9NSN8
SNTG2, Q9NY99 = target: T11, SNTG2, Q9NY99

pKd (APBA1_1, Q02410) | pKd (APBA1_2, Q02410) | pKd (DLG1_1, Q12959) | pKd (DLG4_1, P78352) | pKd (DLG4_3, P78352) | pKd (DVL3, Q92997) | pKd (FRMPD2_1, Q68DX3) | pKd (GIPC2, Q8TF65) | pKd (GORASP2, Q9H8Y8) | pKd (GRIP1_5, Q9Y3R0) | pKd (GRIP2_4, Q9C0E4) | pKd (GRIP2_7, Q9C0E4) | pKd (IL16_3, Q14005) | pKd (Inadl_10, Q8NI35) | pKd (Inadl_8, Q8NI35) | pKd (LIMK2, P53671) | pKd (LIN7C, Q9NUP9) | pKd (LNX2_3, Q8N448) | pKd (MAST2, Q6P0Q8) | pKd (MPDZ_12, O75970) | Binder | further results
below the threshold | 3.53 | below the threshold | below the threshold | below the threshold | below the threshold | below the threshold | below the threshold | below the threshold | below the threshold | below the threshold | below the threshold | below the threshold | below the threshold | 3.69 | below the threshold | 3.92 | below the threshold | 4.1 | 3.56 | QRPYRRGSEI [KCNJ18, B7U540] | pKd (NHERF3_4, Q5T2W1): below the threshold; pKd (NHERF4_4, Q86UT5): below the threshold; pKd (PDZD2_2, O15018): 4.79; pKd (PTPN3, P26045): 4.02; pKd (SCRIB_2, Q14160): 3.49; pKd (SNTG1, Q9NSN8): below the threshold; pKd (SNTG2, Q9NY99): below the threshold
below the threshold | 3.83 | below the threshold | 3.54 | below the threshold | 3.66 | below the threshold | below the threshold | 4.01 | below the threshold | below the threshold | below the threshold | below the threshold | below the threshold | 4.06 | below the threshold | 3.99 | below the threshold | below the threshold | below the threshold | ARSAAASNYV [CLDN4, O14493] | pKd (NHERF3_4, Q5T2W1): below the threshold; pKd (NHERF4_4, Q86UT5): 3.92; pKd (PDZD2_2, O15018): 4.49; pKd (PTPN3, P26045): below the threshold; pKd (SCRIB_2, Q14160): below the threshold; pKd (SNTG1, Q9NSN8): below the threshold; pKd (SNTG2, Q9NY99): below the threshold
below the threshold | below the threshold | 3.54 | below the threshold | 4.12 | below the threshold | below the threshold | below the threshold | below the threshold | below the threshold | below the threshold | below the threshold | below the threshold | below the threshold | below the threshold | below the threshold | below the threshold | below the threshold | 4.72 | below the threshold | NISYRRESAI [KCNJ4, P48050] | pKd (NHERF3_4, Q5T2W1): below the threshold; pKd (NHERF4_4, Q86UT5): below the threshold; pKd (PDZD2_2, O15018): 4.36; pKd (PTPN3, P26045): 4.6; pKd (SCRIB_2, Q14160): 3.69; pKd (SNTG1, Q9NSN8): below the threshold; pKd (SNTG2, Q9NY99): below the threshold

— publication PMC9482650, “Quantitative fragmentomics allow affinity mapping of interactomes” (Nature Communications, 2022)
